We go through three molecules from US9458465B2, “Compositions and methods to modulate cell membrane resealing” (RUTGERS, THE STATE UNIVERSITY OF NEW JERSEY, priority 2007, dated 2016).

Data set [1] concerns FDB muscle fibers from mg53−/− mice. The data set can be described thus: FM1-43 dye entry after UV-laser damage, mg53−/− FDB muscle fibers. Type of data set: cell-based. As to conditions: mg53−/− fibers; +Zn-HPT. The protocol: (§1) FIG. 20. Protective effect of zinc on membrane repair is lost in mg53−/− skeletal muscle. (a) individual flexor digitorum brevis (FDB) muscle fibers were isolated from wild type (WT) mice (3-6 months). A strong UV laser was applied to the FDB fiber that caused local damage to the muscle (arrow). Entry of FM1-43 fluorescent dye (2.5 μM) was used as an indicator for the measurement of membrane repair capacity. The images were taken 200 s following UV irradiation (control). […] (d) Schematic diagram of zinc-binding motifs in MG53. The amino-terminus of MG53 contains two putative zinc-binding motifs: one located at the RING motif (a.a. 1-56, human cDNA), and the other located at the B-box motif (a.a. 86-117, human cDNA). The specific amino acids that participate in zinc-binding are indicated.
as §1, with “Protective” for “FIG. 20. Protective”, “To access membrane repair capacity,” for “(a)”, “months) (FIG. 20a).” for “months).”, “Summary data for panel a and b (FIG. 20c). […]” for “(d)”, “indicated (FIG. 20d).” for “indicated.”

Data set [2] has as its system C2C12 cells expressing GFP-MG53. The data set can be described thus: GFP-MG53 redistribution on agent application without injury. The conditions noted are these: 20 μM Zn-HPT, prolonged incubation (15 min). It is filed as cell-based, murine. An excerpt:
Extracellular zinc entry is essential for MG53-mediated vesicle translocation to acute membrane injury sites. To follow the process of intracellular vesicle translocation associated with repair of acute membrane damage, GFP-MG53 fusion protein was expressed in C2C12 myoblast cells (FIG. 21a). […] Acute injury of the cell generated by penetration of a microelectrode caused rapid translocation of MG53-containing vesicles at the injury site (arrow, right panel). […] C2C12 cells transiently transfected with GFP-MG53 was incubated with 20 μM Zn-HPT. Under control condition (0 min), GFP-MG53 was distributed in the cytosol, as well as intracellular vesicles (FIG. 21d).
An active ingredient from notoginseng can facilitate MG53-membrane repair function. GFP-MG53 was expressed in C2C12 cells and then these cells were perfused with an alcohol extract from notoginseng. […] Based on this observation, we reasoned that a therapeutic approach with the combination of MG53 and notoginseng may provide additive protective effects in preventing both inflammation and membrane damage to the cells, and thus can improve the function of MG53 when applied in tandem with recombinant MG53 protein or when applied alone as a supplement of pharmaceutical.

Data set [3] concerns FDB muscle fibers from wild type (WT) mice. The data set can be described thus: FM1-43 dye entry after UV-laser damage, wild type FDB muscle fibers. The conditions noted are these: WT fibers; 2 μM zinc-ionophore. Type of data set: cell-based. The protocol: as §1
as §1, with “Protective” for “FIG. 20. Protective”, “To access membrane repair capacity,” for “(a)”, “months) (FIG. 20a).” for “months).”, “Summary data for panel a and b (FIG. 20c). […]” for “(d)”, “indicated (FIG. 20d).” for “indicated.”

Data set [4] deals with HEPM cells. The data set can be described thus: LDH release after electroporation, HEPM. As to conditions: 10 ug/mL, extracellular; various field strengths. It is filed as cell-based, human. On the procedure: Recombinant MG53 can protect gum lining cells from cell membrane damage. (a) HEPM cells (5×10^4) were treated with 10 ug/mL recombinant human MG53 or vehicle control and then electroporated at various field strengths (FIG. 36). […] (b) MG53 or a vehicle control was added to recombinant LDH to generate standard curves for LDH activity.
A general note: LDH leaks from cells whose membrane has failed.

A short description of data set [5]: PIP2-Strip lipid dot blot. Type of data set: binding. The conditions noted are these: 1 μg/ml.
In data set [6] the test system is HEPM cells. The data set can be described thus: LDH release after LPS treatment. Type of data set: cell-based, human. The conditions noted are these: LPS 1 mg/mL, 24 hours, co-incubation. The source says: Lipopolysaccarides can induce membrane damage in HEPM cells that can be prevented by exposure to MG53.
Data set [7] concerns HEK293 cells. The data set can be described thus: LDH release after electroporation, HEK293. Type of data set: cell-based, human. As to conditions: 10 ug/mL, extracellular; various field strengths. The protocol:
Genetic overexpression of MG53 can prevent membrane damage. Human embryonic kidney (HEK293) cells were transfected with RFP-MG53 or RFP and then electroporated with fields of varying strength (FIG. 32). The amount of membrane damage was measured by assessing the amount of lactate dehydrogenase (LDH) that leaks into the extracellular media out of holes in the plasma membrane produced by electroporation. The more damage that occurs to the membrane, the higher the reading on the LDH assay will be. […] Thus, expression of exogenous MG53 in non-muscle cells can increase the capacity for cell membrane repair in such non-muscle cells.
Recombinant MG53 can protect kidney cells from cell membrane damage. (a) HEK293 cells (8×10^4) were treated with 10 ug/mL recombinant human MG53 or vehicle control and then electroporated at various field strengths (FIG. 35). […] (b) MG53 or a vehicle control was added to recombinant LDH to generate standard curves for LDH activity.

Data set [8] concerns HEK293 cells. The data set can be described thus: LDH release after glass microbead damage, HEK293. It is filed as cell-based, human. As to conditions: glass microbeads. The protocol: Recombinant MG53 can protect kidney cells from mechanical cell membrane damage. HEK293 cells (8×10^4) were treated with glass microbeads to induce mechanical damage (FIG. 37). Different does of recombinant human MG53 or vehicle control was applied to the samples when glass beads were added to the media. Cells were rotated on an orbital shaker and then the supernatant was analyzed for LDH levels.
Externally applied recombinant MG53 requires phosphatidylserine (PS) binding to reseal damaged membranes. HEK293 cells were treated with recombinant human MG53 or vehicle and them damaged by shaking in the presence of glass microbeads (black bars) (FIG. 40). Membrane damage is measured by LDH release from cells that is recorded by colormetric assay recorded at 488 nm. […] Thus, MG53 must be able to bind exposed PS on damaged cells in order to facilitate membrane repair. * p<0.05
HEK293 cells were treated with recombinant human MG53 or vehicle and them damaged by shaking in the presence of glass microbeads (black bars) (FIG. 41). Membrane damage is measured by LDH release from cells that is recorded by colormetric assay recorded at 488 nm. […] Thus, MG53 must be able to bind exposed PS on damaged cells in order to facilitate membrane repair. * p<0.05

Data set [9] relates to Hela cervical epithelial cells. The data set can be described thus: Resealing after glass bead damage, Hela. It is filed as cell-based. As to conditions: glass beads. The source says: Effects of MG53 are specific to the function of the protein.
Data set [10] concerns Human IB3 airway epithelial cells. The data set can be described thus: LDH release after glass bead damage, IB3. It is filed as cell-based. The conditions noted are these: glass beads; external protein. The protocol: External MG53 can reseal to membrane damage in airway epithelial cells. Human IB3 airway epithelial cells were treated with external recombinant human MG53 or vehicle control and then exposed to mechanical membrane damage by glass beads (FIG. 48).

In data set [11] the test system is E3-ligase activity of MG53. The data set can be described thus: In vitro ubiquitination with ATP, ubiquitin, E1 and E2 enzymes. Type of data set: biochemical. The conditions noted are these: Ubc4 or UbcH5 as E2. The protocol:
To test whether MG53 can catalyze ubiquitination in vitro, we prepared a recombinant maltose-binding protein (MBP) fusion protein for MG53. MBP-MG53 was incubated with ATP, ubiquitin, E1 and E2 enzymes, and subjected to immunoblotting with the anti-MBP antibody. […] The exclusion of either ubiquitin, E1 or E2 (UbcH5) from the assay abolished the appearance of such ladders, confirming that the modification acquired by MBP-MG53 was indeed auto-ubiquitination. […] Thus, MG53 is a Ring-finger type ubiquitin ligase that couples with Ubc4/5 sub-family of E2 enzymes.

Data set [12] has as its system C2C12 cells expressing GFP-MG53. The data set can be described thus: Repair of acute membrane damage: translocation to microelectrode injury site. It is filed as cell-based, murine. As to conditions: C2C12 cells. The protocol: To follow the process of intracellular vesicle translocation associated with repair of acute membrane damage, GFP-MG53 fusion protein was expressed in C2C12 myoblast cells (FIG. 21a). […]
Cell culture—The C2C12 murine myoblast cell line used for all studies was purchased from the American Type Culture Collection (Manassas, Va.). Cells were grown in a humidified environment at 37° C. and 5% CO2 in DMEM medium for C2C12 or Ham's F12 medium for CHO cells supplemented with 10% fetal bovine serum, 100 units/ml penicillin and 100 ug/ml streptomycin. In order to induce myotube differentiation, C2C12 myoblasts were grown to confluence and the medium was switched to DMEM containing 2% horse serum, penicillin (100 U/ml), streptomycin (100 μg/ml). For transient transfections, C2C12 myoblasts or CHO cells were plated at 70% confluence in glass-bottom dishes. After 24 hours, cells were transfected with plasmids described above using GeneJammer reagent (Stratagene). Cells were visualized by live cell confocal imaging at 24-48 hours after transfection or at times indicated for individual experiments. In some experiments, C2C12 myoblasts were allowed to differentiate into myotubes for the indicated time before observation.
Live cell imaging—To monitor intracellular trafficking of GFP-MG53 either CHO or C2C12 cells were cultured in glass-bottom dishes (Bioptechs Inc.) and transfected with the plasmids described above. Fluorescence images (512×512) were captured at 3.18 s/frame using a BioRad 2100 Radiance laser scanning confocal microscope with a 63×1.3NA oil immersion objective.

A further data set relates to mg53−/− myotubes. The data set can be described thus: Membrane repair in transfected mg53−/− myotubes. It is filed as cell-based, mice. The conditions noted are these: primary cultured mg53−/− myotubes. An excerpt:
The entry of FM4-64, a red-shifted variant of FM1-43, was used as an index of membrane repair capacity in mg53−/− myotubes transfected with GFP-MG53 and GFP-C242A. Following UV-bleaching of the green fluorescence, rapid translocation of GFP-MG53 took place at the injury site, whereas GFP-C242A remained static due to its defective oligomerization properties (FIG. 16E, 17A).
Similar defects with GFP-C29L were also observed in C2C12 myotubes (FIG. 18e, middle).

On to `[O-]n1ccccc1=S.[O-]n1ccccc1=S.[Zn+2]` [Zn-HPT, Zn-1-hydroxypyridine-2-thine], for which the “membrane repair capacity (FM1-43 dye entry)” value in data set [1] was “did not produce protective effect on membrane repair”; in data set [3], “increased membrane repair capacity”. Moreover, in [2], the “redistribution of GFP-MG53” value was “caused redistribution of GFP-MG53 toward the cell surface membrane and the intracellular membrane compartments”.

B1: recombinant human MG53: recombinant mitsugumin53 protein, muscle-specific TRIM family protein, applied extracellularly (protein)
chain: MSAAPGLLHQELSCPLCLQLFDAPVTAECGHSFCRACLGRVAGEPAADGTVLCPCCQAPTRPQALSTNLQLARLVEGLAQVPQGHCEEHLDPLSIYCEQDRALVCGVCASLGSHRGHRLLPAAEAHARLKTQLPQQKLQLQEACMRKEKSVAVLEHQLVEVEETVRQFRGAVGEQLGKMRVFLAALEGSLDCEAERVRGEAGVALRRELGSLNSYLEQLRQMEKVLEEVADKPQTEFLMKYCLVTSRLQKILAESPPPARLDIQLPIISDDFKFQVWRKMFRALMPALEELTFDPSSAHPSLVVSSSGRRVECSEQKAPPAGEDPRQFDKAVAVVAHQQLSEGEHYWEVDVGDKPRWALGVIAAEAPRRGRLHAVPSQGLWLLGLREGKILEAHVEAKEPRALRSPERRPTRIGLYLSFGDGVLSFYDASDADALVPLFAFHERLPRPVYPFFDVCWHDKGKNAQPLLLVGPEGAEA
In the case of B1, the “membrane damage (LDH) from electroporation” value in the data set on HEPM cells [4] and in the data set on HEK293 cells [7] was “can prevent damage from electroporation” each time. Moreover, in data set [5], the lipid binding result is “specifically binds phosphatidylserine (PS) and not other membrane lipids”. The “prevention of LPS induced damage (LDH release)” value in the data set with HEPM cells [6] is listed as “can prevent damage to HEPM cells produced by LPS”. For the same molecule, the saturating dose with HEK293 cells [8] was about 10 µg/mL. Besides, in the data set on HEK293 cells [8] (different doses), the “mechanical membrane damage (LDH levels)” value was “can prevent mechanical membrane damage”. Besides, the membrane resealing result in [9] is given as “effective at resealing damage”; in [9] (recombinant protein boiled), “can no longer facilitate membrane resealing”. Further, the “cell membrane damage (LDH release)” value in [10] is recorded as “could prevent cell membrane damage due to mechanical damage”.

B2: C29L: MG53 mutant, Cys-29 in the Ring-finger motif replaced with leucine; GFP fusion, MBP fusion in b268 (protein)
chain: MSAAPGLLRQELSCPLCLQLFDAPVTAELGHSFCRACLIRVAGEPAADGTVACPCCQAPTRPQALSTNLQLSRLVEGLAQVPQGHCEEHLDPLSIYCEQDRTLVCGVCASLGSHRGHRLLPAAEAQARLKTQLPQQKMQLQEACMRKEKTVAVLEHQLVEVEETVRQFRGAVGEQLGKMRMFLAALESSLDREAERVRGDAGVALRRELSSLNSYLEQLRQMEKVLEEVADKPQTEFLMKFCLVTSRLQKILSESPPPARLDIQLPVISDDFKFQVWKKMFRALMPALEELTFDPSSAHPSLVVSSSGRRVECSDQKAPPAGEDTRQFDKAVAVVAQQLLSQGEHYWEVEVGDKPRWALGVMAADASRRGRLHAVPSQGLWLLGLRDGKILEAHVEAKEPRALRTPERPPARIGLYLSFADGVLAFYDASNPDVLTPIFSFHERLPGPVYPIFDVCWHDKGKNAQPLLLVGPEQEQA
modifications: left off: large carriers
notes: MG53 mutant, Cys-29 in the Ring-finger motif replaced with leucine; GFP fusion, MBP fusion
Regarding B2, the “ubiquitination / intrinsic E3-ligase activity” value in data set [11] is recorded as “significantly reduced”. The “Membrane Repair (+Zn-HPT)” value in data set [12] (2 μM Zn-HPT, listed as GFP-C29L) is given as “partially rescue the movement”. For the same molecule, in data set [12] (acute membrane damage), the “translocation to injury site and membrane repair function of GFP fusion protein” value is “immobile and ineffective in repair of membrane injury”. For the same molecule, the “Membrane Repair (−Zn-HPT)” value in data set [12] (extracellular solution with nominal free zinc, listed as GFP-C29L) is “defective movement toward the acute injury site”. Also, the “translocation to the plasma membrane following injury” value in the data set on mg53−/− myotubes is reported as “remained generally unresponsive to acute cell injury”.
